This note sets out measurements from article PMC9739371, “Deciphering the Binding of the Nuclear Localization Sequence of Myc Protein to the Nuclear Carrier Importin α3” (International Journal of Molecular Sciences, 2022).

The target of assay [1] is T1, IBB-depleted species of importin α3 (residues 64-521 of the intact protein) (human, UniProt O00629 64-521).
T1 construct: also called ΔImpα3; truncated species of Impα3; source: purified as previously described [18,19,20]
T1 sequence (looked up): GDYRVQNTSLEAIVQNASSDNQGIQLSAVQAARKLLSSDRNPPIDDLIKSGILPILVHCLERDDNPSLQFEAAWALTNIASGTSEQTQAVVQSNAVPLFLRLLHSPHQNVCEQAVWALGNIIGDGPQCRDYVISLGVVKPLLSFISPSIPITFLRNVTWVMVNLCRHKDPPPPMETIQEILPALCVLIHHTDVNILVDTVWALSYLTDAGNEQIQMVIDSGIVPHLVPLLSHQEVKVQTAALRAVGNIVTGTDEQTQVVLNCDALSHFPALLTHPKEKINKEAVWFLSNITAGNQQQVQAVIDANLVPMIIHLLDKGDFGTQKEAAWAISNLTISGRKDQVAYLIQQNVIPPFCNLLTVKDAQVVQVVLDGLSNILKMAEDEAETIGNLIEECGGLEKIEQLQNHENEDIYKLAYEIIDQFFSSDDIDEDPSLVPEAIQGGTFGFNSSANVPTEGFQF
Briefly: BLI; BLItz system; His-tagged Impα3 or ΔImpα3 immobilised on His-tag biosensors at 0.5 µM; NLS-Myc 1 to 7 µM in solution; 10x kinetics buffer of the manufacturer; 25 °C; kon and koff from a pseudo-first-order plot. Conditions: both partners purified. A general note: Biolayer interferometry detects binding as a change in optical thickness at a sensor tip.

In assay [2] the target is T2, human importin α3 isoform (residues 1-521) (human, UniProt O00629 1-521).
T2 construct: importin α3 (Impα3), human, residues 1-521, with the N-terminal IBB domain; also called Impα3; source: purified as previously described [18,19,20]
T2 sequence (looked up): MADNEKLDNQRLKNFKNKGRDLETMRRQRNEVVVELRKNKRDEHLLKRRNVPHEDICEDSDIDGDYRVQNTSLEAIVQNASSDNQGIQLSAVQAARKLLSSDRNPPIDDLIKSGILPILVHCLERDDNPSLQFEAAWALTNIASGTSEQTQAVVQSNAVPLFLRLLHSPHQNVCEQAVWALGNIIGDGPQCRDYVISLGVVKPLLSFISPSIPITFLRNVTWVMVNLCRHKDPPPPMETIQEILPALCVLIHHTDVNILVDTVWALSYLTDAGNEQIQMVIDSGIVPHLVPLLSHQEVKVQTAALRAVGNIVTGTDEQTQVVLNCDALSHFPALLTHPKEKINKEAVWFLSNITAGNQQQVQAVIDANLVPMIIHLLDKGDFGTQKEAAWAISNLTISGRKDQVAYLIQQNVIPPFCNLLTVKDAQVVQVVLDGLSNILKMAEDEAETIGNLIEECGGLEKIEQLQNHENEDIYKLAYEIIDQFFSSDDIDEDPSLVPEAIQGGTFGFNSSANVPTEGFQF
Described as above. Conditions: both partners purified.

“And” between values parts separate entries of the source, which are not always exact repeats. Equal entries are not always repeated.

B1: NLS-Myc peptide (Ala310-Asn339 of human c-Myc) (peptide)
peptide: AAPPSTRKDYPAAKRVKLDSVRVLRQISNN
notes: human c-Myc, residues Ala310-Asn339: canonical NLS Pro320-Asp328 with the flanking residues of native Myc; also called the peptide; source: synthetic peptide, produced by NZYtech (Lisbon, Portugal), purity larger than 95%
A word on the Kd: it is the equilibrium constant for the complex coming apart. A higher Kd goes with a looser complex. With B1, the Kd was 60 ± 30 nM in assay [1]; 500 nM and 600 nM in assay [2].
